Changes are numbered by the printed parent chain. In names and notes the source's numbering stands.
How the values were obtained:
[1] = Thermal shift assay via nanoDSF measurement (unfolding temperature); format: physicochemical; settings: Prometheus NT.Plex, 3° C./min, 0.06-0.5 mg/ml
Procedure: The thermal shift assay was performed via nanoDSF (differential scanning fluorimetry) measurements using Prometheus NT.Plex nanoDSF (NanoTemper Technologies). The measurement was initialized using the software PR.ThermoControl. Prometheus can precisely characterize samples by measuring the thermal unfolding, chemical denaturation and aggregation within one single run (NanoTemper Technologies, 2019). By gradually heating the sample until reaching 95° C., the protein unfolds. Thereby, the chemical environment of tryptophan residues changes (change in intrinsic tryptophan fluorescence of protein due to more aqueous environment), causing a red-shift in fluorescence (tryptophan fluorescence emission shift). By plotting the fluorescence ratio 350/330 nm against the temperature, the melting temperature Tm can be determined. Calculating the first derivative of raw data gives a peak curve with its maximum indicating the unfolding temperature Tm.
For the sample preparation, a concentration of 0.5 mg/ml was adjusted for the hGCase mutants. For variant I5N and R495HS2, protein concentrations of 0.075 mg/ml (I5N) and 0.06 mg/ml (R495HS2) were applied due to low protein yields. 15 μl total sample volume was uptaken in each capillary of the capillary rack (Prometheus NT.Plex Capillary Chips, NanoTemper) and placed in the device. The excitation power was adjusted to 20-80%, depending on the applied protein concentration. The gradually heating was set to 3° C./min until reaching 95° C. (20° C. was set as starting temperature). The evaluation and calculation of the first derivative was done using the NanoTemper PR.ThermoControl software, the final evaluation and graphing was done using the PR.StabilityAnalysis software.
On the one hand, a successively increasing temperature gradient was applied to measure melting temperatures of protein molecules via nanoDSF (differential scanning fluorimetry) measurement using Prometheus NT.Plex (NanoTemper Technologies, 2019). The sample is gradually heated by increasing the temperature until reaching 95° C. Thereby, the protein unfolds and tryptophan residues experience a change in chemical environment (exposure to a more aqueous environment), which changes the intrinsic tryptophan fluorescence of the protein, causing a red shift in the fluorescent spectrum (350/330 nm=tryptophan fluorescence emission shift) (Schubert, 2015). In FIG. 1, typical melting curves of such an unfolding experiment are shown.
In the upper section of the graphs (FIGS. 1 (A) and (B)), the raw data (progression curves) measured with nanoDSF is plotted, indicating the shift in the fluorescence ratio 350/330 nm during the course of the measurement with increasing temperature. The calculation of the first derivative, giving peak curves (lower section of graphs in (A) and (B)), was done according to default settings of the Software PR.StabilityAnalysis (table 2). Peak maxima (thermal unfolding transition midpoint) indicate the unfolding temperature Tm, where half of the proteins are unfold (Schubert, 2015).

[2] = Determination of the kinetic parameters (Michaelis-Menten) with artificial substrate; format: biochemical; settings: for kcat: protein concentration used: 25 nM; for Km / Vmax: res-β-glc 4-500 μM, 25 nM protein
Procedure: The kinetic parameters were examined using the artificial substrate resorufin-β-glucopyranoside (Sigma-Aldrich). For the determination, final concentrations of substrate ranging from 4-500 μM were tested. The assay followed the activity assay instructions in section 2.3.5. 25 nM final protein concentration was used for each construct. The incubation time was set to 30 min to ensure measurements in the linear signal range. The kinetics were evaluated and plotted according to Michaelis-Menten (Cornish-Bowden, 2013; Johnson, 2015). KM, Vmax was calculated by GraphPad Prism7 applying the Michaelis-Menten fit equation provided by the program. The equation model follows: […]
with: • KM: Michaelis-Menten constant [μM] • Vmax: maximum velocity of reaction [μM/min]
The kinetic parameter kcat is defined as the catalytic constant, representing the turnover number of substrate to product per time unit (here per second) (Eisenthal et al., 2007). kcat can be calculated as follows: […]
with: • kcat: turnover number [min-1] • Vmax: maximum velocity of reaction [μM/min] • [E]tot.: total enzyme concentration [nM]
Another kinetic key parameter to describe the catalytic efficiency of enzymes is the parameter kcat/KM, measured in [μM−1*s−1] in this work (Eisenthal et al., 2007).
Determining enzyme kinetic key parameters gives solid information about the efficiency and efficacy of an enzyme and how certain mutations can impact its functionality. For the determination and comparison of the enzymatic performances, KM, Vmax and kcat as well as kcat/KM were calculated for the different hGCase variants, respectively (Eisenthal et al., 2007). The according assay was performed as described in section 2.5.5, all measured with the artificial substrate res-3-glc. KM and Vmax determination for representative mutant M53T/P55T was done applying the Michaelis-Menten curve fit (GraphPad Prism7; see equation 4) as shown in the following.
The kinetic raw data is depicted in FIG. 5 (A) with progression curves following pseudo first order in a linear measurement range with a good reproducibility and low variance. The slopes of the progression curves can be replotted, with velocities V [μM/min] plotted as a function of substrate concentration [S] applied, resulting in a typical course of a Michaelis-Menten curve (Cornish-Bowden, 2013; Johnson, 2015).

B1: I5N: recombinant human β-glucocerebrosidase variant R495H/I5N, S2 cells; Seq. Id. No. 4 (protein, listed as Homo sapiens)
chain: ARPCNPKSFGYSSVVCVCNATYCDSFDPPTFPALGTFSRYESTRSGRRMELSMGPIQANHTGTGLLLTLQPEQKFQKVKGFGGAMTDAAALNILALSPPAQNLLLKSYFSEEGIGYNIIRVPMASCDFSIRTYTYADTPDDFQLHNFSLPEEDTKLKIPLIHRALQLAQRPVSLLASPWTSPTWLKTNGAVNGKGSLKGQPGDIYHQTWARYFVKFLDAYAEHKLQFWAVTAENEPSAGLLSGYPFQCLGFTPEHQRDFIARDLGPTLANSTHHNVRLLMLDDQRLLLPHWAKVVLTDPEAAKYVHGIAVHWYLDFLAPAKATLGETHRLFPNTMLFASEACVGSKFWEQSVRLGSWDRGMQYSHSIITNLLYHVVGWTDWNLALNPEGGPNWVRNFVDSPIIVDITKDTFYKQPMFYHLGHFSKFIPEGSQRVGLVASQKNDLDAVALMHPDGSAVVVVLNRSSKDVPLTIKDPAVGFLETISPGYSIHTYLWHRQ
notes: recombinant human β-glucocerebrosidase variant R495H/I5N, S2 cells; Id; No. 4
unfolding temperature Tm [1]: 54.8 ± 0.4 °C
kcat [2]: 0.09 s⁻¹
Km [2]: 118 µM
Vmax [2]: 0.14 µM/min

B2: imiglucerase (protein, UniProt P04062 40-536, looked up, variant R495H)
Lysosomal acid …: B1 chain with N5I
modifications: imiglucerase; CHO-produced
notes: Commercially available Cerezyme (imiglucerase, Genzyme), hGCase R495H produced in CHO cells
unfolding temperature Tm [1]: 55.2 ± 0.0 °C
kcat [2]: 0.09 s⁻¹
Km [2]: 131 µM
Vmax [2]: 0.14 µM/min

— patent publication US20220325265A1, “GLUCOCEREBROSIDASE MUTANTS” (Hoffmann-la Roche Inc., priority 2019, published 2022)
